Legend:
FGFR-2b = target: T1, FGFR-2b (Homo sapiens, UniProt P21802); assay: BiaCore binding kinetics; conditions: BiaCore kinetic analysis
T1 construct: purchased R&D Systems

FGFR-2c = target: T2, FGFR-2c (Homo sapiens, UniProt P21802); assay: BiaCore binding kinetics; conditions: BiaCore kinetic analysis
T2 construct: purchased R&D Systems

FGFR-1(IIIb) = target: T3, FGFR-1(IIIb) (Homo sapiens, UniProt P11362); assay: ELISA binding assay
T3 construct: purchased R&D Systems
Experimental: (§1) Recombinant FGFRs (R&D systems) at a concentration of 1 μg/ml in PBS were coated on 96-well plates at room temperature for 2 hrs. The plates were washed 3 times with 0.2% Tween20/PBS, and blocked with 5% milk/PBS for 2 hrs before use. FR1-H7 or FR1-A1 was added to the plate and serially diluted in 0.2% Tween20/PBS. The plate was incubated at room temperature for 2 more hrs. The captured antibodies were detected using an anti-human light chain monoclonal antibody conjugated with […] (Pierce Biotechnology, Rockford, Ill.) solution prepared according to supplier's instructions.

other FGFRs = assay: ELISA binding assay
Experimental: as §1

FGFR-1 = target: T4, FGFR-1 (Homo sapiens, UniProt P11362); assay: Phosphorylation assay in FGFR-1 expressing L6 cells (western blot); type: cell-based; conditions: anti-phospho-tyrosine western blot
T4 construct: expressed in transfected cells; host or cells: L6 (ATCC), pBABE retroviral vector
Experimental: FGFR-1 expressing L6 cells were cultured in 10% FBS, DMEM, in a 24-well tissue culture plate till confluency. Cells were Serum starved in 5 μg/ml heparin, 0.1% FBS, DMEM, for 8-24 hrs. Either FR1-H7 or FR1-A1 was added to the media and allowed to bind with the cell surface receptors at 37° C. for 1 hr. Cells were then stimulated with 20 ng/ml FGFs at 37° C. for 10 min before they were lyzed using ice-cold lysis buffer for 30 min. Cell lysate was subjected to SDS-PAGE followed by western blot. Membranes were probed with anti-phospho-tyrosine antibody (Cell Signaling Technology, Inc., Beverly, Mass.) for detection of phosphorylated FGFR-1 receptors according to supplier's instructions.
The phosphorylation assay for small molecules is essentially the same as the phosphorylation assay described in Examples 7 and 15 and Phosphorylation Assay, except that small molecule compounds was used instead of FGFR-1 antibodies in all occasions. […] Equal amount of cell lysates were applied to each sample lane. Receptor auto-phosphorylation was probed using anti-phospho-tyrosine antibody as described in the original patent.

[1] = tested on: Human umbilical vascular endothelial cells (HUVECs); assay: HUVEC proliferation assay (3H-thymidine); type: cell-based; conditions: 3H-thymidine incorporation
Experimental: Human umbilical vascular endothelial cells (HUVECs) were seeded in 96-well tissue culture plates at a concentration of 5×10^4 cells/ml. After attachment, cells were quiesced in EMG-2 medium lacking EGF, VEGF and FGF-2 (Cambrex, East Rutherford, N.J.) for 24 hrs. Quiescent media in wells were aspirated and replaced with EMG-2 that contained all the growth factors mentioned above. Antibodies were serially diluted and added to the wells. Cells were incubated at 37° C. with 5% CO2 in a Muaire™ DH autoflow incubator (Cryostar Industries, Inc., White Hall, Pa.) for 48-72 hrs. Cell growth was determined by monitoring ^3H-thymidine incorporation using a 1450 Micorbeta liquid scintillation counter (Perkin Elmer, Gaithersburg, Md.).

[2] = Single-dose short-term study in female athymic nude mice: body and tissue weights, serum chemistry; type: in vivo
Experimental: Short-term effects of the FR1-H7 antibody on serum levels of insulin, leptin, glucose, and triglycerides were examined by injecting 4 mg/kg antibody or control vehicle into female athymic nude mice. Samples were collected and evaluated before treatment and 6, 24, and 48 hours after treatment. Alanine aminotransferase (ALT), […], blood urea nitrogen (BUN), total serum proteins, and serum albumin levels were measured using serum samples taken 48 hours after treatment. The mice were sacrificed and weights of their left parametrial fat pad, left tibialis anterior muscle, left posterior liver lobe, and spleen were also taken.

[3] = Energy expenditure and body composition in C57 black mice (incl. paired-feeding); type: in vivo
Experimental: To elucidate the mechanism of the weight-loss induced by FGFR antagonistic antibodies, the effect of FR1-H7 on energy expenditure and body composition of mice was studied. […] A paired-feeding experiment was also conducted which food consumption of control antibody treated animals was restrained to exact that of FR1-H7 treated animals (FIG. 27). […] Moreover, body composition (Day 1 and 5) and energy consumption determined for the two groups were mostly indistinguishable.
This study consisted of two stages. In the first stage, female C57 black mice (Charles River Laboratories, Wilmington, Mass.) were randomized into two groups (n=16) and individually housed in a metabolic cage. Both groups of Mice were given hi-carbohydrate content chow and water ad libitum. […] Body composition was determined using NMR on Day 1 and Day 5. Body weight and food consumption were determined daily. Energy expenditure, ambulatory activities, and oxygen consumption and were monitored continuously. RER were calculated based on energy expenditure and oxygen consumption.
In the second stage, both groups of Mice were given water ad libitum, but only 2 g of hi-carbohydrate content chow each animal per day. The amount of food given was determined in the first stage experiment to be the averaged daily food assumption of those animals one day after being treated with FR1-H7 (10 mg/kg body weight, intraperitonaeally). […]

[4] = Repeated-dose study in female athymic nude mice: body weight, food intake, rearing, blood glucose; type: in vivo; conditions: day 64
FGFR-1(IIIc) = FGFR-1(IIIc) (Homo sapiens, UniProt P11362); assay: ELISA binding assay; parameters: purchased R&D Systems
Experimental: as §1

T4 sequence (P11362 22-822): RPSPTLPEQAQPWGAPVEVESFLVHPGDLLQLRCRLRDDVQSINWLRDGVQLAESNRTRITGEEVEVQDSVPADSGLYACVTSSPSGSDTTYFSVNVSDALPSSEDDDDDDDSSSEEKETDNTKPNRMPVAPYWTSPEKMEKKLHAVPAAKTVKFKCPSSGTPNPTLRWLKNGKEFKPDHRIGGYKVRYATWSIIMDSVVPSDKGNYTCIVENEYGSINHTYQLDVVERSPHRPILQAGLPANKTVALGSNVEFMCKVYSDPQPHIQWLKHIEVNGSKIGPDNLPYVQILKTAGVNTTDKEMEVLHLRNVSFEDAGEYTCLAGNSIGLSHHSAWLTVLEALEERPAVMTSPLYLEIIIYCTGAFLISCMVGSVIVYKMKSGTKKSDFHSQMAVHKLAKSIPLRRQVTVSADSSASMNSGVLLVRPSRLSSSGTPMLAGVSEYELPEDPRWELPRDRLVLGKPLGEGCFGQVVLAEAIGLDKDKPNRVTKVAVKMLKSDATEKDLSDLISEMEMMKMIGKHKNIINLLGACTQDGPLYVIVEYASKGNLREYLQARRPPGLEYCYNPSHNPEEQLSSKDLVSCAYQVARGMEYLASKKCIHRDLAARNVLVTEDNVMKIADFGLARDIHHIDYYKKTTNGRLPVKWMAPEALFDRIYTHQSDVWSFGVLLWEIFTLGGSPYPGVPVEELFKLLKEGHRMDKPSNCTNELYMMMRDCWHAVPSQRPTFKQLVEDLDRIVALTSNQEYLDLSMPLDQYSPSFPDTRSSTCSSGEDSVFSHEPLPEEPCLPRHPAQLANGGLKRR
T1 sequence (P21802 22-822 isoform P21802-3 limits assumed): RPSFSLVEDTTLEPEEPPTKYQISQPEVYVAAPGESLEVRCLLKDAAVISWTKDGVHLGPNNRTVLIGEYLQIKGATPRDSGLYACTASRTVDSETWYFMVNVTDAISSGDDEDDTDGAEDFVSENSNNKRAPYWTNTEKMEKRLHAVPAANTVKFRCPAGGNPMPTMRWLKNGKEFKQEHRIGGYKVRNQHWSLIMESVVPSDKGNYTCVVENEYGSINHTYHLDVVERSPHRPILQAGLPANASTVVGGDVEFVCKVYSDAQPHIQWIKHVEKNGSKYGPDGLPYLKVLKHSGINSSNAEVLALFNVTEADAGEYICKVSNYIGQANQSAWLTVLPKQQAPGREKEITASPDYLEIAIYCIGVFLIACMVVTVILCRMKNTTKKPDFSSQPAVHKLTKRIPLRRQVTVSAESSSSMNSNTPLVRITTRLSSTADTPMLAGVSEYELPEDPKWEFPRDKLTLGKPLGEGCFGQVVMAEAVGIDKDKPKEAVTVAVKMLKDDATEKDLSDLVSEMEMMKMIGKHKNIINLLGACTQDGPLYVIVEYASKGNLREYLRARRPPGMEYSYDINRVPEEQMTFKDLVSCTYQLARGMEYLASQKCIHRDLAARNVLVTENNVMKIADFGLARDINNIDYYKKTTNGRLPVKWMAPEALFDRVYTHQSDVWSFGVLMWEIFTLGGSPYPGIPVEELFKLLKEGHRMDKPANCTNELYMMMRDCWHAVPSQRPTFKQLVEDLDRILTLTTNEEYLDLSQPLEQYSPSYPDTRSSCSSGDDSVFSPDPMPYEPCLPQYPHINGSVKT
FGFR-1(IIIc), sequence (P11362 22-822): as the sequence (P11362 22-822) above
T3 sequence (P11362 22-822 isoform P11362-19 limits assumed): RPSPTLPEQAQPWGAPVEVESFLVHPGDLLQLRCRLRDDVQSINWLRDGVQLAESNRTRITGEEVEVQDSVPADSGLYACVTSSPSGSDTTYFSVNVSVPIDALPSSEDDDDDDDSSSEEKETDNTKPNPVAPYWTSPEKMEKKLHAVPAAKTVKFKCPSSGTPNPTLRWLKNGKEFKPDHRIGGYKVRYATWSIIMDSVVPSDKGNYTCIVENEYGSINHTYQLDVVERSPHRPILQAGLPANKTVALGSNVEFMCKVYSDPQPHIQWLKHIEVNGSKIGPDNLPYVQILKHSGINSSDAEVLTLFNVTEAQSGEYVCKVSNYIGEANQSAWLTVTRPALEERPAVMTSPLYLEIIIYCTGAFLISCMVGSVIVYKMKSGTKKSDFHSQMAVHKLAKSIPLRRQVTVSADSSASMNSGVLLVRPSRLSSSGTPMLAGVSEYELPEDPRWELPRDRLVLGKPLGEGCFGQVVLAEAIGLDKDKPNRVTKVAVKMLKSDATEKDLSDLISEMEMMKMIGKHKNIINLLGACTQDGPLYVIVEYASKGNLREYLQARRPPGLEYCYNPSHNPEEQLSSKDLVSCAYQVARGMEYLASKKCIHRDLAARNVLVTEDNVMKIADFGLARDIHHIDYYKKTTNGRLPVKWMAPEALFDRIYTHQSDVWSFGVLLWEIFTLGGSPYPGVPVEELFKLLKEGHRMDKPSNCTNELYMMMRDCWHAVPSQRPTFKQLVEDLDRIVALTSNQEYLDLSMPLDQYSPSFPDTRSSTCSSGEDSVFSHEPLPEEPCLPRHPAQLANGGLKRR
T2 sequence (P21802 22-821): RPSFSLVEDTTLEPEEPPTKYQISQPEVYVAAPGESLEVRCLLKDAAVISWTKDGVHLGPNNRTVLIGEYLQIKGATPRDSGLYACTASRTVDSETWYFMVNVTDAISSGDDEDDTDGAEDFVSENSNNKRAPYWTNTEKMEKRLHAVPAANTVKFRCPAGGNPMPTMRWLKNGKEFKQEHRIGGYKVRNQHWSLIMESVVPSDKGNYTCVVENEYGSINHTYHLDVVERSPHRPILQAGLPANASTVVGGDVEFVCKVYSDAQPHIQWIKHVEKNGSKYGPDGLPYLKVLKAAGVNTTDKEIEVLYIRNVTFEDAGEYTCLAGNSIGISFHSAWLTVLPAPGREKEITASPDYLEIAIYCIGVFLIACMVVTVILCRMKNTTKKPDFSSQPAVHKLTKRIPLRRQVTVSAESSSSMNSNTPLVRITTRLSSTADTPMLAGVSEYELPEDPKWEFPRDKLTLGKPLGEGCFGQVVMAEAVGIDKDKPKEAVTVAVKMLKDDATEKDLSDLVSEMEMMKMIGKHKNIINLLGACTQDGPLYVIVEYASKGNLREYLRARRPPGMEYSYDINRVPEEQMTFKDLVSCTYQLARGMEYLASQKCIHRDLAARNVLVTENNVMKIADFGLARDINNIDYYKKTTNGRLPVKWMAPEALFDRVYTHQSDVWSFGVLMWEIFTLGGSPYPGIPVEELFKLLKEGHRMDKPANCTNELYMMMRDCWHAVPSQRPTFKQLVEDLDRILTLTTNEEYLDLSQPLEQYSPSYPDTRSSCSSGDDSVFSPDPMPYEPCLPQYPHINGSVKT

B1: FR1-H7: human monoclonal antibody from phage Fab library, specific for FGFR-1(IIIb) and/or FGFR-1(IIIc), and/or FGFR-4(IIIc); VH/VL SEQ ID NOS:7, 8 (antibody, listed as Homo sapiens)
VH: MAEVQLVQSGAEVKKPGASVKVSCKVSGYTFTDYYMHWVQQAPGKGLEWMGLVDPEDGETIYAEKFQGRVTITADTSTDTAYMELSSLRSEDTAVYYCARDDYMDVWGKGTLVTVSSASTKGP
VL: LETTLTQSPDTLSLSPGEGATLSCRASQSVSGSALAWYQQKPGQAPRLLIYDASSRATGVPDRFSGSGSGADFSLTISRLEPEDFAVYSCQQYGSSPLTFGPGTKVDVKRTVAAPSVFIFPPSDEQLKSGTASVVCLLNNFYPREAKVQWKVD
With B1 the Kd (FGFR-2b) was greater than 1000 nM, the Kd (FGFR-2c) was greater than 1000 nM and the “binding to FGFR-1(IIIb)” value (FGFR-1(IIIb)) was “strong affinities”. The “binding to the other FGFRs” value (other FGFRs) was “does not recognize”, the “inhibition of ligand (FGF) mediated receptor phosphorylation” value (FGFR-1; antibody) was “significantly inhibits” and the “receptor activation by the antibody by itself” value (FGFR-1; no ligand) was “does not activate the receptor”. The “proliferation of HUVECs in vitro” value [1] was “inhibited the proliferation of HUVECs in vitro in a dose-dependant manner”, the serum insulin level ([2]; single 4 mg/kg) was “significantly reduced” and the serum leptin level ([2]; single 4 mg/kg) was “significantly reduced”. For the same molecule, the serum triglycerides level ([2]; single 4 mg/kg) was “significantly reduced”, the “reduction of averaged body weight compared to control groups” value ([2]; single 4 mg/kg s.c., 48 hours) was “approximately 6%” and the “weight reduction of parametrial fat pad” value ([2]; single 4 mg/kg s.c., 48 hours) was “approximately 60%”. The “weights of muscle, liver, and spleen” value ([2]; single 4 mg/kg s.c., 48 hours) was “appear to be normal”, the “levels of ALT, CPK, BUN, total serum proteins, and serum albumin versus control” value ([2]; single 4 mg/kg, 48 hours) was “no significant differences” and the serum glucose level ([2]; single 4 mg/kg, 48 hours after treatment) was “did not affect”. For the same molecule, the “body weight, food intake, muscle and fat mass, energy expenditure and Respiratory Exchange Ratio (RER) compared to the controls” value ([3]; 10 mg/kg i.p. Day 2 and Day 4, food ad libitum) was “decreases”, the “weight loss versus pair-fed control antibody treated animals” value ([3]; 10 mg/kg i.p., paired-feeding, 5-day period) was “identical weight-loss trajectories” and the “non-fasted blood glucose after weight recovery” value [4] was “restored to normal range”. The “binding to FGFR-1(IIIc)” value (FGFR-1(IIIc)) was “strong affinities”.
